Data published in EP3459964A1, “GALECTIN-1 BINDING PEPTIDES AND USE THEREOF FOR DIAGNOSTIC AND THERAPEUTIC PURPOSE” (Université de Mons, priority 2017, dated 2019).
Where no end group is shown, it is not given here.

Legend:
TPC-1 cells = experiment: Cell adhesion assay: TPC-1 cell adhesion to immobilized gal-1; type: cell-based, human; settings: 500 nM, TPC-1 adhesion to gal-1, non-biotinylated peptides
Method: Gal-1 (Peprotech) was immobilized on 96-well culture plates at 20 µg/mL overnight at 4°C. After blocking with 0.1% BSA prepared in phosphate buffered saline (PBS, per liter: 8 g NaCl, 0.2 g KCl, 2.31 g Na2HPO4 × 12 H2O 0.2 g KH2PO4, pH 7.4), non-biotinylated peptides (P1, P7 or P1Scr) diluted in RPMI 1640 culture medium at 0.5 µM or 50 µM were pre-incubated with gal-1 for 2 hours. In the meanwhile, TPC-1 cells (10^5 cells/well) were pre-incubated with the desired concentration of peptides in RPMI 1640 culture medium for 30 minutes before seeding them into the wells. The cells were then incubated (37 °C, 5% CO2) with gal-1 immobilized on wells for one hour. The negative control cells were incubated with RPMI 1640 culture medium alone. After washing steps and plate centrifugation between them, cells were fixed 15 minutes with buffered 4% formalin (from Sigma-Aldrich) and washed before staining with 1% crystal violet. Wells were rinsed and crystal violet was solubilized with dimethyl sulfoxide (DMSO, Sigma-Aldrich) before measuring absorbance at 570 nm (differential filter at 630 nm) with a microplate reader. The percentage of adherent cells was obtained by calculating the percentage ratio of OD measured for TPC-1 incubated with peptides over the OD of negative control cells.

[1] = Circular dichroism study of secondary structure in distilled water; type: physicochemical; settings: non-biotinylated peptides, 1 mM in distilled water, 20 °C and 37 °C
Method: Non-biotinylated peptides dissolved in distilled water at 1 mM were used for structure analysis. Circular Dichroism (CD) spectra were recorded using a ChirascanTM Plus CD Spectrometer (Applied Photophysics Inc., Leatherhead, United Kingdom). The measurements were carried out using 1 mm quartz Suprasil cells from Hellma Analytics (Müllheim, Germany). The spectra were recorded between 180 and 350 nm, with a bandwidth of 0.5 nm, time per point 2 s and three repetitions, both at 20 °C and 37 °C. The CD RMS (Root Mean Square) noise is around 0.03 mdeg at 180 nm. The aqueous solution reference spectra were used as baselines and were automatically subtracted from the CD spectra of the samples.

[2] = target: T1, gal-1 expressed by human tumor tissues (Homo sapiens, UniProt P09382); experiment: Binding of biotinylated peptides to human thyroid biopsies (immunohistochemistry, ImageJ semi-quantitative analysis); settings: for staining produced by peptides in healthy thyroids and thyroid adenomas compared to papillary, follicular and anaplastic thyroid cancer: ImageJ analysis of immunohistochemistry microphotographs; for targeting of the papillary areas: biotinylated peptides 20 µM, human papillary thyroid cancer biopsy sections
T1 construct: from tissue; host or cells: paraffin-embedded human thyroid biopsy sections (healthy, inflammatory, adenoma, papillary, follicular, anaplastic)
Method: Immunohistochemistry evaluation was performed on 5 µm thick sections mounted on silane-coated glass slides. The paraffin-embedded tissue specimens were deparaffinized and rehydrated. After unmasking the epitopes in citrate buffer pH 6.0, the endogenous peroxidase activity was blocked with 0.7% H2O2. Sections were then blocked with streptavidin - biotin blocking kit (Vector Labconsult) and with 0.5% casein (Sigma-Aldrich).
The binding of biotinylated peptides to tumor biopsies was validated by using a similar protocol. However, no epitope unmasking was performed, while casein blocking was replaced by PFBB. Endogenous peroxidases were blocked with 1% H2O2. The biotinylated peptides (stock prepared in distilled water) were diluted in TBS at a concentration of 20 µM and incubated with tumor biopsies overnight at 4 °C. The bound peptides were then detected with 5 µg/mL of anti-biotin antibody made in goat (Vector Labconsult) and with 1 µg/mL of biotinylated anti-goat IgG made in horse (both from Vector Labconsult) both diluted in TBS completed with 0.5% BSA […]. After incubation with Vectastain ABC kit (Vector Labconsult), the staining with DAB/H2O2 and Hemalun counterstaining were performed as described above.
Gal-1 staining on immunohistochemistry microphotographs (DM2000 Leica microscope equipped with a DFC 425C camera, Leica Microsystems) was semi-quantitatively analyzed by ImageJ software (National Institutes of Health, USA). The expression of gal-1 was compared in 5 cases of healthy thyroid, 2 cases of inflammatory thyroid (patients with goiter), 6 cases of thyroid adenoma, 6 cases of papillary thyroid cancer, 4 cases of follicular variant of papillary thyroid cancer and 6 cases of anaplastic cancer. The binding of peptides 1 and 7 was compared in 5 cases of healthy thyroid, 2 cases of inflammatory thyroid, 6 cases of thyroid adenoma, 3 cases of papillary thyroid cancer, 3 cases of follicular thyroid cancer and 6 cases of anaplastic thyroid cancer. The total area occupied by brown stained pixels was determined after thresholding the background staining on blank histological slices, where the primary antibody was excluded. The total stained area is then automatically generated after pixel segmentation.

Human gal-1 = target: T2, Human gal-1 (Homo sapiens, UniProt P09382); experiment: Gal-1 binding of the isolated phage clones (ELISA), affinity constants against gal-1 or control proteins (HSA, collagen); settings: phage clone expressing the peptide; for Affinity 2 Ka^Gal-1 / Ka^Coll / Affinity 1 Ka^Gal-1 / Ka^HSA: Ka = 1/K*d; for Affinity 2 Ka^Gal-1 / Ka^Coll: Coll = collagen; for Affinity 1 Ka^Gal-1 / Ka^HSA: one representative clone per sequence; for Affinity 3 Ka^Gal-1/ ((Ka^HSA + Ka^Coll)/2): specific affinity vs mean of control proteins
T2 construct: purchased Peprotech
Method: Human gal-1 (Peprotech) and control proteins (HSA and collagen) were immobilized on 96-well ELISA plates at a concentration of 10 µg/mL in NaHCO3 0.1 M, pH 8.6, overnight at 4°C. The wells were then blocked with Protein-Free Blocking Buffer (PFBB, Thermo Fisher Scientific, p/a Perbio Science BVBA, Aalst, Belgium), 1 hour at room temperature. Fifty clones issued from each phage display experiment were first screened at one concentration (5 x 10^11 phages/100 µL for PDE1; 10^11 phages/100 µL for PDE2) prepared in Tris buffered saline (TBS: 50 mM Tris-HCl, 150 mM NaCl, pH 7.5) supplemented with 0.5% Tween-20 (TBST). The clones were incubated for 2 hours at room temperature, under mild agitation. To determine the apparent dissociation constant (K*d) of the selected clones, ten serial dilutions of phages (generally ranging from 5x10^12 to 10^7 phages/100 µL) were incubated with gal-1 or control proteins in the same conditions as for the first clones' screening. The bound phages were detected by an incubation (1 hour, room temperature) with horseradish peroxidase (HRP)-conjugated anti-M13 monoclonal antibody (Amersham Pharmacia Biotech Benelux, Roosendaal, The Netherlands) diluted 1:5000 in TBS supplemented with 0.5% BSA. After each incubation step, the wells were rinsed with an automated microplate washer (Beckman Coulter, Analis, Suarlée, Belgium). Finally, the wells were filled with 200 µL/well of 2,2'-azino-bis(3-ethylbenzothiazoline-6-sulphonic acid (ABTS, 22 mg) diammonium salt (Sigma-Aldrich) solution prepared in 50 mM sodium citrate pH 4.0 completed with 0.05% H2O2. The optical density (OD) was measured (405 nm, differential filter: 630 nm) using a microplate reader (StatFax-2100, Awareness Technology, Fisher Bioblock Scientific, Tournai, Belgium).

T2 sequence (P09382 whole entry): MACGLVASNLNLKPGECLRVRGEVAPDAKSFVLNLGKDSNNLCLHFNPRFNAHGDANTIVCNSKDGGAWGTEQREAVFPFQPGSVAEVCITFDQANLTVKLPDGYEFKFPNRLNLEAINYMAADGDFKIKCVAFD
T1 sequence (P09382 whole entry): as above

| conformation in aqueous solution (CD signature) [1] | staining produced by peptides in healthy thyroids and thyroid adenomas compared to papillary, follicular and anaplastic thyroid cancer [2] | Affinity 2 Ka^Gal-1 / Ka^Coll (Human gal-1) | Affinity 1 Ka^Gal-1 / Ka^HSA (Human gal-1) | Affinity 3 Ka^Gal-1/ ((Ka^HSA + Ka^Coll)/2) (Human gal-1) | Sequence | decrease of cell adhesion (TPC-1 cells) | targeting of the papillary areas [2] |
| --- | --- | --- | --- | --- | --- | --- | --- |
| random coil state | weaker |  |  |  | HLWGWLYAPSFQ [Peptide P1, HLWGWLYAPSFQ] | around 25% | efficient targeting of the papillary areas |
|  |  | 1.93 | 1.18 | 1.47 | VHWDFRQWWQPS [Peptide P4] |  |  |
|  |  | 27.92 | 1.23 | 2.36 | DWSSWVYRDPQT [Peptide P8] |  |  |
| random coil state | weaker | infinite ratio | infinite ratio | infinite ratio | YSWHIDIVAPRN [Peptide P7, YSWHIDIVAPRN] | ~30% | efficient targeting of the papillary areas |
|  |  | 1.58·10^13 | 1.25 | 2.50 | YHHSGPYAGPMW [Peptide P5] |  |  |
|  |  | 1.17 | 1.17 | 1.17 | SVYVEISWVRTM [Peptide P6] |  |  |
|  |  | 8.15 | 121.56 | 25.66 | YTFHFDIFQPHF [Peptide P2] |  |  |

| Sequence | conformation in aqueous solution (CD signature) [1] | staining produced by peptides in healthy thyroids and thyroid adenomas compared to papillary, follicular and anaplastic thyroid cancer [2] | Affinity 2 Ka^Gal-1 / Ka^Coll (Human gal-1) | Affinity 1 Ka^Gal-1 / Ka^HSA (Human gal-1) | Affinity 3 Ka^Gal-1/ ((Ka^HSA + Ka^Coll)/2) (Human gal-1) | decrease of cell adhesion (TPC-1 cells) | targeting of the papillary areas [2] |
| --- | --- | --- | --- | --- | --- | --- | --- |
| HYSWSWIAYSPG [Peptide P3] |  |  | 1.35 | 0.99 | 1.14 |  |  |
